Test results taken from US20240084003A1 (SIMCERE ZAIMING PHARMACEUTICAL, published 2024).

T1: monkey CD22 protein (ACROBiosystems, catalog number SI2-R52Ha) (monkey, UniProt F6W485 20-688)
T1 construct: commercial protein; also called monkey CD22-ECD; monkey CD22-ECD-His
T1 sequence: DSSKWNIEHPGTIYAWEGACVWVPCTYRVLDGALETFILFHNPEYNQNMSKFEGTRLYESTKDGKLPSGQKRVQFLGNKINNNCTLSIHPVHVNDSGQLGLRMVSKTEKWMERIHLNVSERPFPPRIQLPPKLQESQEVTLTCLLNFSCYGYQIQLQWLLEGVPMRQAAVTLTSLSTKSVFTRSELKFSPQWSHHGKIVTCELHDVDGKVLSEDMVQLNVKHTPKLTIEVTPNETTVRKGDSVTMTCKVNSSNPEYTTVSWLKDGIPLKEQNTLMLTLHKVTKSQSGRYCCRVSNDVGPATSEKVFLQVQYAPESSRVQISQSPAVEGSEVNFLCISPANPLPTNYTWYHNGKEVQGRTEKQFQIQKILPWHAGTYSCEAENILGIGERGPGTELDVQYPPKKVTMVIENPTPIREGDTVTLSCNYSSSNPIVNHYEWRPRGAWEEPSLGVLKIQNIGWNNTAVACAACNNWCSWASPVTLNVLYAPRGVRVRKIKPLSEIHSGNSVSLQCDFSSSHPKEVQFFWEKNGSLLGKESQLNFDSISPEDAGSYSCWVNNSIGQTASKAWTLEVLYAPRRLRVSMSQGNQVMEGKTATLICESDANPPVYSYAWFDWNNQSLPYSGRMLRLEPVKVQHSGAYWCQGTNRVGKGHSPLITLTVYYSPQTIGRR


Columns and labels:
[1] = biological target: T2, CD22 on cynomolgus monkey peripheral blood B cells (cynomolgus monkey (Macaca fascicularis)); test: FACS, cynomolgus PBMC, CD20+ B cells, antibody 1 nM
T2 construct: whole, on cells; also called cynomolgus monkey B cells
Method in brief: (§1)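 By flow cytometry, the readout is the fraction of CD20-gated B cells that are positive for chimeric antibody. Ficoll-isolated monkey PBMC were incubated 1 h at room temperature with anti-CD20 plus test antibody (1, 10 or 100 nM), then labelled with APC anti-human IgG Fc secondary for 30 min in the dark.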

[2] = biological target: T1, monkey CD22 protein (ACROBiosystems, …); test: ELISA, coated monkey CD22 protein, antibody 100 nM
Method in brief: (§2)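 Coat 2 μg/mL CD22 in PBS, overnight 4° C; block PBS/2% BSA 2 h RT. Ab 2 h 37° C; HRP anti-species secondary 2 h 37° C. TMB 30 min RT, stop 1.0 N HCl.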

[3] = biological target: T1, monkey CD22 protein (ACROBiosystems, …); test: ELISA, coated monkey CD22 protein, antibody 10 nM
Method in brief: as §2

[4] = biological target: T1, monkey CD22 protein (ACROBiosystems, …); test: ELISA, coated monkey CD22 protein, antibody 0.0001 nM
Method in brief: as §2

[5] = biological target: T2, CD22 on cynomolgus monkey peripheral …; test: FACS, cynomolgus PBMC, CD20+ B cells, antibody 10 nM
Method in brief: as §1

[6] = biological target: T1, monkey CD22 protein (ACROBiosystems, …); test: ELISA, coated monkey CD22 protein, antibody 0.1 nM
Method in brief: as §2

[7] = biological target: T1, monkey CD22 protein (ACROBiosystems, …); test: ELISA, coated monkey CD22 protein, antibody 0.00001 nM
Method in brief: as §2

[8] = biological target: T1, monkey CD22 protein (ACROBiosystems, …); test: ELISA, coated monkey CD22 protein, antibody 0.01 nM
Method in brief: as §2

[9] = biological target: T1, monkey CD22 protein (ACROBiosystems, …); test: ELISA, coated monkey CD22 protein, antibody 0.001 nM
Method in brief: as §2

[10] = biological target: T2, CD22 on cynomolgus monkey peripheral …; test: FACS, cynomolgus PBMC, CD20+ B cells, antibody 100 nM
Method in brief: as §1

Row | Proportion of chimeric antibody positive cells to B cells (%) [1] [%] | OD450 [2] [OD450] | OD450 [3] [OD450] | OD450 [4] [OD450] | Proportion of chimeric antibody positive cells to B cells (%) [5] [%] | OD450 [6] [OD450] | OD450 [7] [OD450] | OD450 [8] [OD450] | OD450 [9] [OD450] | Proportion of chimeric antibody positive cells to B cells (%) [10] [%] | Binder
1 | 30 | 3.21 | 2.93 | 0.18 | 31 | 2.78 | 0.09 | 2.47 | 0.82 | 34 | F1.172.13 (antibody, human IgG1, kappa, V domains shown, human-murine chimeric IgG1 kappa) VH: QVTLKESGPGILQSSQTLSLTCSFSGFSLSTSGMGVSWIRQPSGKGLEWLAHIYWDDDKRYNPSLKSRLTISKDTSRNQVFLKITSVDTADTATYYCARAPPPNWDEYYFDYWGQGTTLTVSS VL: DIQMTQSPASLSASVGETVTITCRASGNIHNSLAWYQQKQGKSPQLLVHNAKTLADGVPSRFSGSGSGTQYSLKINSLQPEDFGSYYCQHFWSTPPFGGGTKLEIKR
2 | 22 | 1.94 | 2.15 | 0.21 | 25 | 2.24 | 0.09 | 2.04 | 0.91 | 34 | F1.216.2 (antibody, human IgG1, kappa, V domains shown, human-murine chimeric IgG1 kappa) VH: QVQLQQSGPEVVRPGASVKISCKASGYAFSSSWMNWMKQRPGKALEWIGRIYPGDGDTNYSGEFKVKATLTADKSSSTAYMQLSSLTSEDSAVYFCAREGSYYSNPWYFDYWGQGTTLTVSS VL: DVLVTQTPLSLPVSLGDQASISCRSSQSIVQSNGDTYLEWYLQKPGQSPKLLIYKVSNRFSGVPDRFSGSGSGTDFTLKISRVEAEDLGVYYCFQGSHVPFTFGSGTKLEIKR
3 | 17 | 0.36 | 0.18 | 0.06 | 19 | 0.07 | 0.06 | 0.05 | 0.05 | 24 | F1.62.10 (antibody, human IgG1, kappa, V domains shown, human-murine chimeric IgG1 kappa) VH: QVQLQQSGPELVKPGASVKISCKASGYEFSSIWMNWVKQRPGEGLEWIGRIFPGDGEINYNEKFKGKATLTADRSSTTAYMQLSSLTSEDSAVYFCAGWRIYYGTYGAMDYWGQGTSVTVSS VL: DIQMTQITSSLSASLGDRVTISCRASQDIGNYLNWYQQKPDGTVKLLIYYTSRLHSGVPSRFSGSGSRTDYSLTISNLQQEDIATYFCQQGNTLPWTFGGGTKLEIKR
4 | 16 | 0.08 | 0.06 | 0.06 | 17 | 0.06 | 0.06 | 0.06 | 0.06 | 17 | F1.245.2 (antibody, human IgG1, kappa, V domains shown, human-murine chimeric IgG1 kappa) VH: EVQLQQSGAELVKPGASVKLSCTGSGFNIKDYYIHWVKQRTEQGLEWMGRIDPEDGETEYAPKFQDEATITSDTSSNTAYLQLSSLTYEDTAVYYCAREAAGYFYRGSSYGYFDVWGTGTTVTVSS VL: DFQMTQTTSFLSASLGDRVTISCSASQDISNYLNWYQQKPDGTVKLLIYYTSSLHSGVPSRFSGSGSGTDYSLTISNLEPEDIATYYCQQYSMLPYTFGGGTKLEMER
5 | 17 | 0.18 | 0.07 | 0.06 | 20 | 0.06 | 0.06 | 0.05 | 0.05 | 34 | F1.257.3 (antibody, human IgG1, kappa, V domains shown, human-murine chimeric IgG1 kappa; VL name legible) VH: QVQLQQSGPELARPGASVKLSCKASGYTFTSYGISWVKQRTGQDLEWIGEIYPKLGTTYYNEKFKDKATLTTDRSSSTAYMALRSLTSEDSAVYFCACPHYYATRGGDYWGQGTTLTVSS VL: EIVLTQSPATLSVTPGDSVTFSCRASQSISNHLHWYQQKSHESPRLLIRYASQSISGIPSRFSGSGSGTDFTLSLSSVETEDFGVYFCQQSHSWPYTFGGGTKLEIAR
6 | 16 | 0.09 | 0.07 | 0.06 | 16 | 0.06 | 0.06 | 0.05 | 0.05 | 18 | F1.60.9 (antibody, human IgG1, kappa, V domains shown, human-murine chimeric IgG1 kappa) VH: QVQLKESGPGLVAPSQSLSITCTVSGLSLNNYGVSWVRQPPGKGLEWLGVIWGDGSTNYHSALISRLSISKDNSKSQVFLKLNSLHTDDTATYYCAINWGDYWGQGTTLIVSS VL: DIKMTQSPSSMNASLGERVTITCKASQDINSYLSWFQQKPGKSPKILIYRANRLIDGVPSRFSGSGSGQDYSLTISSLEYEDMGIYYCLQYGVFPLTFGAGTKLELKR
7 | 21 | 1.25 | 1.23 | 0.06 | 37 | 0.62 | 0.06 | 0.19 | 0.08 | 56 | F1.200.11 (antibody, human IgG1, kappa, V domains shown, human-murine chimeric IgG1 kappa) VH: QNQLVQSGPELKKPGETVKISCKASGYTFTTAGMQWVQKMPGKGFKWIGWINTLSGEPKYAEDFKGRFAFSLETSATTAYLQISNLKNEDTATYFCARAYYSNLYWYFDVWGTGTTVTVSS VL: DIVMTQSQKFMSTTVGDRVTITCKASQNVVTAVAWYQQKPGQSPKVLIYSASNRYSGVPDRFTGSGSGTDFTLTISNMHSEDLANYFCHQYSSYPFTFGSGTKLEIKR
8 | 60 | 1.91 | 2.16 | 0.13 | 62 | 1.99 | 0.07 | 1.75 | 0.51 | 68 | F1.17.1 (antibody, human IgG1, kappa, V domains shown, human-murine chimeric IgG1 kappa) VH: QVQLKESGPGLVAPSQSLSITCTVSGFSLSRYTVHWVRQPPGKGLEWLGMIWGGGSTDYNSALKSRLSISKDNSKSQVFLKMNSLQTDDTAMYYCARPHDFDAGGFAYWGQGTLVTVSA VL: QIVLTQSPAILSTSPGEKVTMTCSASSRVNYMYWYQQKPGSSPRLLIYDTSNLASGVPVRFSGSGSGTSYSLTISRMEAEDAATYYCQQWTSYPLTFGAGTKLELKR
9 | 22 | 1.21 | 0.84 | 0.07 | 30 | 0.53 | 0.07 | 0.19 | 0.07 | 38 | F1.192.1 (antibody, human IgG1, kappa, V domains shown, human-murine chimeric IgG1 kappa) VH: AVQLQQSGVELVRPGASVKLSCTGSDFNIKEDYIHWVKQRPEQGLEWIGWIDPENGDTEYASKFQGKATITADTSSNTAYLQLSSLTSEDTAVYYCATYGSLDYWGQGTTLTVSS VL: DIKMTQSPSSMYAFLGERVTITCKASQGINSFLTWFQQKPGKSPKTLIYRANRLVDGVPSRFSGSGSGQDYSLTISSLEYEDVGIYYCLQYDEFPRTFGGGTKLEIKR
